Assays:
[1] = target: soluble human C3b (UniProt P01024)
[2] = target: human C4b (UniProt P0C0L5)
human C4b, sequence (P0C0L5 whole entry, looked up): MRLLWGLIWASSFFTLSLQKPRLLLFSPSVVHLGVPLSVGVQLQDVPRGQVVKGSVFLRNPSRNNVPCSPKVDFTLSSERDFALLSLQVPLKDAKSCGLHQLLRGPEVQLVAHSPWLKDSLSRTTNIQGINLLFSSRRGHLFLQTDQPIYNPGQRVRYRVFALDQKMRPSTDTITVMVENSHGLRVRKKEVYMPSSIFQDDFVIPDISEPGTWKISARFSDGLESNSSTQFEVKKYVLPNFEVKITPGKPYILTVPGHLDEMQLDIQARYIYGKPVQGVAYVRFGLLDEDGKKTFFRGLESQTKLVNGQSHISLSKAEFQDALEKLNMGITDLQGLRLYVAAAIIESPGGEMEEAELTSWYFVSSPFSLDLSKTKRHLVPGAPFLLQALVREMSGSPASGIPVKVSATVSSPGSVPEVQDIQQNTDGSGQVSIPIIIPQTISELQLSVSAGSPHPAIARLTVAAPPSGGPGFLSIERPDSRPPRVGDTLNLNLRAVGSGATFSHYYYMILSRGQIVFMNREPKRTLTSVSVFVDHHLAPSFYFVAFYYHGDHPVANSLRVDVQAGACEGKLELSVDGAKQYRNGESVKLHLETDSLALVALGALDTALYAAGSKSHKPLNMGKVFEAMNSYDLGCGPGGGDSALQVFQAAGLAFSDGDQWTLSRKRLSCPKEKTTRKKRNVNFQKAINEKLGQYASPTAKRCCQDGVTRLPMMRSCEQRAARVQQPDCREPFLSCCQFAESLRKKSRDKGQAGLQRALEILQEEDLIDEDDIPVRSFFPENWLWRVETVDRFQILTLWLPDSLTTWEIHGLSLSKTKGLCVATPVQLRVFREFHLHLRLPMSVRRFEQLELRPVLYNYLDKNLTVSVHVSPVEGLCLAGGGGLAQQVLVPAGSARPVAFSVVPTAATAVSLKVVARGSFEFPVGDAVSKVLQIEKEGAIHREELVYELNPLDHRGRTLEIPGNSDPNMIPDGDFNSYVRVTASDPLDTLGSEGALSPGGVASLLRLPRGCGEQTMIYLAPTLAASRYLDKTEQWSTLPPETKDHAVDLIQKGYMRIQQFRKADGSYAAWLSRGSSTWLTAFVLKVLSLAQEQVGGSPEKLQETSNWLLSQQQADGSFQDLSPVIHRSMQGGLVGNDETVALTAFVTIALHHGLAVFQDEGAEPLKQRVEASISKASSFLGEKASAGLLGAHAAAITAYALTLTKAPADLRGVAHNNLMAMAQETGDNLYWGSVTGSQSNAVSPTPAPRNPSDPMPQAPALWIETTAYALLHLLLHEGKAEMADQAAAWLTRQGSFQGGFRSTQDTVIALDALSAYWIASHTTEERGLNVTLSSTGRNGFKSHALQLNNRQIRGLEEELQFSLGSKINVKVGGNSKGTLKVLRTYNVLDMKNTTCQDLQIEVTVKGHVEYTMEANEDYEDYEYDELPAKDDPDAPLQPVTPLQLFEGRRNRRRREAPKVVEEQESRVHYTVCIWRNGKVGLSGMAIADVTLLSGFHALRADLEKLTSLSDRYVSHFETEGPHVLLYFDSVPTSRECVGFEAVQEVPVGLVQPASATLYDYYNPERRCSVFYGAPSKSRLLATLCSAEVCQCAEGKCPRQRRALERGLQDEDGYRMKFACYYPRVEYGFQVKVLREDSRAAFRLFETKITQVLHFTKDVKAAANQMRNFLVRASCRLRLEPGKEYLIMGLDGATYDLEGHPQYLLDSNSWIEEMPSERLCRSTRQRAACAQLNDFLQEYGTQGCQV

soluble human C3b, sequence (P01024 whole entry, looked up, tested part not stated): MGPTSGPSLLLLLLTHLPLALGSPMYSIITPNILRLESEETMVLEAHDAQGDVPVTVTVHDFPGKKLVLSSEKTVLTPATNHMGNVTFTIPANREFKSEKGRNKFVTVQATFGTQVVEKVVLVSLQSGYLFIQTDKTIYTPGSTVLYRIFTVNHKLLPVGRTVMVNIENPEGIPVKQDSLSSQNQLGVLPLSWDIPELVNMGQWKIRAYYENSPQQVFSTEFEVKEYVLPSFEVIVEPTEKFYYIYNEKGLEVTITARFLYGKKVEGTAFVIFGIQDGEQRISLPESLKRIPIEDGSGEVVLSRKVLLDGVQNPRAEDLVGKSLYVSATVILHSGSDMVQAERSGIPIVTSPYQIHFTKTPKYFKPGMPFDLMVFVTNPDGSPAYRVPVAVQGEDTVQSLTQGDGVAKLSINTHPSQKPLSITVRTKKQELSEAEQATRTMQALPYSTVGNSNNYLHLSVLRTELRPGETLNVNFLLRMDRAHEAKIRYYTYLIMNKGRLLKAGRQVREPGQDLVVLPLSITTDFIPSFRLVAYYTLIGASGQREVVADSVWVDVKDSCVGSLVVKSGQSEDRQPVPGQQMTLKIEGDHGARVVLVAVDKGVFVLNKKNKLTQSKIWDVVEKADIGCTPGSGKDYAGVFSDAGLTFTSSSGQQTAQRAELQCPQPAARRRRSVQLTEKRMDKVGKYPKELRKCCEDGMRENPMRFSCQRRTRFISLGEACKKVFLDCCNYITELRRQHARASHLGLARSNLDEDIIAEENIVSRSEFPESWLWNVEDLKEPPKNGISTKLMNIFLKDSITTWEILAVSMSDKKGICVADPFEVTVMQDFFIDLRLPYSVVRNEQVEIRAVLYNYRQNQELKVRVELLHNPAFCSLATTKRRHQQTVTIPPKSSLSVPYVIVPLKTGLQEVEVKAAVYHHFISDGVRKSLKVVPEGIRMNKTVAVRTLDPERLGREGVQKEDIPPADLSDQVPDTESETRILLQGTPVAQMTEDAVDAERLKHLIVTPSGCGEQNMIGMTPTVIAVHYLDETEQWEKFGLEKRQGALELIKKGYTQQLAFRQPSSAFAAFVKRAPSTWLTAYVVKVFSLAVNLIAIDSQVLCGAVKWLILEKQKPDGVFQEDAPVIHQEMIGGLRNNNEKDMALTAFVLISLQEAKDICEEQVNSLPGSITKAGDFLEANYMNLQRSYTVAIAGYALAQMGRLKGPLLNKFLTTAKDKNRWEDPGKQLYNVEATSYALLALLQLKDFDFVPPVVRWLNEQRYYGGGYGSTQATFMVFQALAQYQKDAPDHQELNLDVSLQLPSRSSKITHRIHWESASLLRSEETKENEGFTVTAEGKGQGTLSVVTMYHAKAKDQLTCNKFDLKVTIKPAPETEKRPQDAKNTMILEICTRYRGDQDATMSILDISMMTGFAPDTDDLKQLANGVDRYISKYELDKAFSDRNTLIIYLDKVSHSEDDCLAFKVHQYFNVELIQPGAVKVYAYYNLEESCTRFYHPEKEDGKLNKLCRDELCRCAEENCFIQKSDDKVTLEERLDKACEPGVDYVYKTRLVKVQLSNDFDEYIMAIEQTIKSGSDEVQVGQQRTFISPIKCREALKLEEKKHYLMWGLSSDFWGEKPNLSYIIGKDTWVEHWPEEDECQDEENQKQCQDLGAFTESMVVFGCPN
Const. No. 95: HSA linked with CFI (CFI-HSA), wild type, sequence (chain): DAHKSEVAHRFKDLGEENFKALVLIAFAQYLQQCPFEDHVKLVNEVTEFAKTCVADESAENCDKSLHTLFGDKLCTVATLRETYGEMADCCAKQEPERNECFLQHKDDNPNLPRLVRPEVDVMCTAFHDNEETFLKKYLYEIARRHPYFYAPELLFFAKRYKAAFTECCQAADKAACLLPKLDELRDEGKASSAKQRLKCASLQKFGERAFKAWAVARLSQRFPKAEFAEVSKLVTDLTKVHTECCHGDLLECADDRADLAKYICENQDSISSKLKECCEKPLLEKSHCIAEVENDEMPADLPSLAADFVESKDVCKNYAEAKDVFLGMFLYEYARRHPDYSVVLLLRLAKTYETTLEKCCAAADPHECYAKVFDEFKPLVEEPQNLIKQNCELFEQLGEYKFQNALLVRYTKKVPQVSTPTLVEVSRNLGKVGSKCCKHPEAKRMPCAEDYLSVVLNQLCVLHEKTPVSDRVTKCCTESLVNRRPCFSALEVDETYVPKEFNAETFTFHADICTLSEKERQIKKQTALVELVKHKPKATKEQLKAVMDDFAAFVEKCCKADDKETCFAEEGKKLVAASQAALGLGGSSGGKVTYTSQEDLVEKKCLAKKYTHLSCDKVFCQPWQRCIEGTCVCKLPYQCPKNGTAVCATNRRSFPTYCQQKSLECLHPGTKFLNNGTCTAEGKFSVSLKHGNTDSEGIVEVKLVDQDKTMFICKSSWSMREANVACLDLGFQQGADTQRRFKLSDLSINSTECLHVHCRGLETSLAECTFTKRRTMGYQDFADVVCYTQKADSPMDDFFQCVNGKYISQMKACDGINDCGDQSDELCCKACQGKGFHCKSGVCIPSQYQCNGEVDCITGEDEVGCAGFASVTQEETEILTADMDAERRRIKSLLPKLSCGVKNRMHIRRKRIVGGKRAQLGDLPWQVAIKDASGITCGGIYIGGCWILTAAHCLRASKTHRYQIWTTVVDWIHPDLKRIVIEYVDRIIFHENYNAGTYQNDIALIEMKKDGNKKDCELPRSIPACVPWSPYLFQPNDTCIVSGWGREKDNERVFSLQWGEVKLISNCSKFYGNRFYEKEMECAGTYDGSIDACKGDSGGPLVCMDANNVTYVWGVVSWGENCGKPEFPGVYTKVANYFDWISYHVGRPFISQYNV

Row | Substance | iC3b ref fold [1] [fold] | C4c ref fold [2] [fold]
1 | Const. No. 15: HSA-GGSSGG-hCFI; S499K | 0.67 | 1.98
2 | Const. No. 4: HSA-GGSSGG-hCFI; L307H | 0.89 | 3.55
3 | Const. No. 3: HSA-GGSSGG-hCFI; L307F | 1.01 | 3.48
4 | Const. No. 38: HSA-GGSSGG-hCFI; N52A | 0.72 | 2.93
5 | Const. No. 60: HSA-GGSSGG-hCFI; K368D | 0.03 | 1.39
6 | Const. No. 6: HSA-GGSSGG-hCFI; L307Y | 0.63 | 2.98
7 | Const. No. 41: HSA-GGSSGG-hCFI; L73F | 0.9 | 2.36
8 | Const. No. 50: HSA-GGSSGG-hCFI; E416K | 1.89 | 1.23
9 | Const. No. 46: HSA-GGSSGG-hCFI; R484K | 1.21 | 0.76
10 | Const. No. 10: HSA-GGSSGG-hCFI; Δ(Y496) | 0.03 | 0.02
11 | Const. No. 35: HSA-GGSSGG-hCFI; R371E | 0.04 | 2.02
12 | Const. No. 73: HSA-GGSSGGSSGG-Chimp CFI | 0.08 | -0.03
13 | Const. No. 48: HSA-GGSSGG-hCFI; Δ(V565) > VG | 0 | 0.67
14 | Const. No. 40: HSA-GGSSGG-hCFI; T59E | 0.68 | 2.17
15 | Const. No. 20: HSA-GGSSGG-hCFI; T495F; Y496L; S499G; I500K | 0 | 0.05
16 | Const. No. 92: HSA-GGSSGG-hCFI; N422A | 0.72 | 1.52
17 | Const. No. 2: HSA-GGSSGG-hCFI; F559H | 1.73 | 0.58
18 | Const. No. 36: HSA-GGSSGG-hCFI; A342R | 1.73 | 2.08
19 | Const. No. 42: HSA-GGSSGG-hCFI; L73D | 0.08 | 2.33
20 | Const. No. 30: HSA-GGSSGG-hCFI; N402G | 1.44 | 0.73
21 | Const. No. 19: HSA-GGSSGG-hCFI; S499A; I500K | 0.02 | -0.05
22 | Const. No. 53: HSA-GGSSGG-hCFI; D395G | 1.52 | 0.8
23 | Const. No. 14: HSA-GGSSGG-hCFI; S499A | 1.36 | 0.45
24 | Const. No. 78: HSA-GGSSGG-hCFI; K51D; T59E; R61D | 0 | -0.24
25 | Const. No. 1: HSA-GGSSGG-hCFI; F559W | 1.39 | 1.08
26 | Const. No. 12: HSA-GGSSGG-hCFI; Δ(Y496; D497) | 0.18 | 0.9
27 | Const. No. 74: HSA-GGSSGGSSGG-Bovine CFI | 1.67 | 2.19

Row | Substance | iC3b ref fold [1] [fold] | C4c ref fold [2] [fold]
28 | Const. No. 18: HSA-GGSSGG-hCFI; S499G; I500K | 0.16 | 0.08
29 | Const. No. 77: HSA-GGSSGG-hCFI; H383K; R388Q; E392Q; Y393T; K419M | 1.21 | 3.81
30 | Const. No. 81: HSA-GGSSGG-hCFI; M186E; G187L; Y188S; Q189N; D190G; F191L; D193G | 0.95 | 3.31
31 | Const. No. 51: HSA-GGSSGG-hCFI; E416R | 1.87 | 1.17
32 | Const. No. 59: HSA-GGSSGG-hCFI; N402D | 0.74 | 1.66
33 | Const. No. 49: HSA-GGSSGG-hCFI; Δ(V565) > VY | 0.15 | 1.47
34 | Const. No. 93: HSA-GGSSGG-hCFI; T377A | 1.09 | 2.36
35 | Const. No. 57: HSA-GGSSGG-hCFI; D395A; E416A | 0.76 | 0.06
36 | Const. No. 28: HSA-GGSSGG-hCFI; E401A | 1.87 | 0.86
37 | Const. No. 56: HSA-GGSSGG-hCFI; D395A; D425A | 1.77 | 0.65
38 | Const. No. 37: HSA-GGSSGG-hCFI; K51R; N52A; A55P; T59M; R61G; F64Y | 1.12 | 3.59
39 | Const. No. 91: HSA-GGSSGG-hCFI; T377A; E457G; N531G | 1.7 | 4.59
40 | Const. No. 33: HSA-GGSSGG-hCFI; H554F | 1 | 0.55
41 | Const. No. 70: HSA-GGSSGGSSGG-Rat CFI | 0.94 | 4.12
42 | Const. No. 76: HSA-GGSSGG-hCFI; H383K; D385N; K387S; R388Q; E392Q; Y393T; D395K; K419M; D420H; G421T; N422G; D425E | 2.11 | 4.46
43 | Const. No. 68: HSA-GGSSGG-hCFI-GGSSGG-hCR1; CCP1; CCP2; CCP3-GGSSGG-hCR1; CCP15; CCP16; CCP17 | 0.06 | 3.75
44 | Const. No. 26: HSA-GGSSGG-hCFI; E401K | 2.37 | 1.92
45 | Const. No. 29: HSA-GGSSGG-hCFI; E401F | 1.64 | 0.5
46 | Const. No. 5: HSA-GGSSGG-hCFI; L307W | 0.79 | 3.89
47 | Const. No. 27: HSA-GGSSGG-hCFI; E401R | 2.12 | 2.93
48 | Const. No. 54: HSA-GGSSGG-hCFI; D395K | 2.06 | 1.61
49 | Const. No. 25: HSA-GGSSGG-hCFI; R62H | 0.29 | 0.74
50 | Const. No. 24: HSA-GGSSGG-hCFI; R62L | 0.19 | 0.59
51 | Const. No. 22: HSA-GGSSGG-hCFI; R62A | 0.23 | 1.07
52 | Const. No. 43: HSA-GGSSGG-hCFI; Δ(275-CAGFASVAQE-284)(SEQ ID NO: 31) > CEEDRQQNIPKGLARSAQGEAEIETE (SEQ ID NO: 32) | 0.89 | 1.54
53 | Const. No. 23: HSA-GGSSGG-hCFI; R62E | 0.04 | 0.1
54 | Const. No. 47: HSA-GGSSGG-hCFI; R484E | 0.35 | 0.93

Row | Substance | iC3b ref fold [1] [fold] | C4c ref fold [2] [fold]
55 | Const. No. 52: HSA-GGSSGG-hCFI; D395A | 1.55 | 0.78
56 | Const. No. 80: HSA-GGSSGG-hCFI; Δ(1-KVTYTS-6)(SEQ ID NO: 35) > RSPSASDLP (SEQ ID NO: 36) | 0.91 | 3.07
57 | Const. No. 58: HSA-GGSSGG-hCFI; D395A; E416A; D425A | 0.77 | 0.06
58 | Const. No. 11: HSA-GGSSGG-hCFI; Δ(D497) | -0.01 | -0.02
59 | Const. No. 71: HSA-GGSSGGSSGG-Gorilla CFI | 0.07 | 0.09
60 | Const. No. 34: HSA-GGSSGG-hCFI; H554K | 2.11 | 2.62
61 | Const. No. 75: HSA-GGSSGGSSGG-Alligator CFI | -0.03 | 0.12
62 | Const. No. 17: HSA-GGSSGG-hCFI; Y496L | 0.44 | 1.54
63 | Const. No. 72: HSA-GGSSGGSSGG-Cyno CFI | 3.17 | 0.34
64 | Const. No. 79: HSA-GGSSGG-hCFI; Q69H; L73F; G79E; T80I; L83S; N84H | 1.63 | 3.36
65 | Const. No. 31: HSA-GGSSGG-hCFI; N402K | 1.53 | 1.14
66 | Const. No. 16: HSA-GGSSGG-hCFI; S499V | 0.18 | 1.24
67 | Const. No. 8: HSA-GGSSGG-hCFI; P433G | 0.14 | 0.39
68 | Const. No. 89: HSA-GGSSGG-hCFI; T377G; E457G; N531G-GGSSGG-hCR1; CCP15; CCP16; CCP17; hFH; CCP4-GGGGGGGGGGGG-hFH; CCP19; CCP20 | 0.05 | 3.21
69 | Const. No. 32: HSA-GGSSGG-hCFI; N402R | 1.47 | 0.98
70 | Const. No. 21: HSA-GGSSGG-hCFI; K423R | 0.55 | 1.44
71 | Const. No. 64: HSA-GGSSGG-hCFI-GGSSGG-hCR1; CCP8; CCP9; CCP10 | 0.06 | 4.11
72 | Const. No. 39: HSA-GGSSGG-hCFI; A55P | 1.1 | 2.83
73 | Const. No. 95: HSA linked with CFI (CFI-HSA), wild type | 1 | 1
74 | Const. No. 9: HSA-GGSSGG-hCFI; P433F | 0.07 | 0.05
75 | Const. No. 67: HSA-GGSSGG-hCFI-GGSSGG-hCR1; CCP1; CCP2; CCP3; CCP4 | -0.01 | 3.2
76 | Const. No. 44: HSA-GGSSGG-hCFI; Δ(275-CAGFASVAQE-284)(SEQ ID NO: 31) > CEEDRQQNIPKGLARSAQGEAEIETE (SEQ ID NO: 32) + GGSSGG (SEQ ID NO: 6) + CR1(ccp15-17) | 0.03 | 3.47
77 | Const. No. 45: HSA-GGSSGG-hCFI; R484A | 0.7 | 1.3
78 | Const. No. 13: HSA-GGSSGG-hCFI; S499G | 0.34 | 0.72
79 | Const. No. 55: HSA-GGSSGG-hCFI; D395R | 1.85 | 1.38
80 | Const. No. 7: HSA-GGSSGG-hCFI; P433A | 0.8 | 0.81
